Data: US20120142585A1 (TEMPLE UNIVERSITY OF THE C0MMONWEALTH SYSTEM OF HIGHER …, published 2012)
Where no end group is shown, it is not given here. [ ]: non-standard residue; d: D form. NMeR = CN[C@@H](CCCNC(=N)N)C(=O)O; aThr = C[C@H](O)[C@H](N)C(=O)O; Nva = CCC[C@H](N)C(=O)O; Ahx = NCCCCCC(=O)O; βAla = NCCC(=O)O

B1: peptide of amino acid sequence Thr-Glu-Nva-Nva-Ala-Leu-Ser-Arg-NvaNH2 [SEQ ID NO:47] (peptide)
peptide: TE[Nva][Nva]ALSR[Nva]-NH2
modifications: N-terminus assumed
SMILES: CCC[C@H](NC(=O)[C@H](CCCNC(=N)N)NC(=O)[C@H](CO)NC(=O)[C@H](CC(C)C)NC(=O)[C@H](C)NC(=O)[C@H](CCC)NC(=O)[C@H](CCC)NC(=O)[C@H](CCC(=O)O)NC(=O)[C@@H](N)[C@@H](C)O)C(N)=O
B2: peptide of amino acid sequence alloThr-Glu-Nva-Val-Ala-Leu-Ser-Arg-AcpNH2 [SEQ ID NO:49] (peptide)
peptide: [aThr]E[Nva]VALSR[Ahx]-NH2
modifications: N-terminus assumed
SMILES: CCC[C@H](NC(=O)[C@H](CCC(=O)O)NC(=O)[C@@H](N)[C@H](C)O)C(=O)N[C@H](C(=O)N[C@@H](C)C(=O)N[C@@H](CC(C)C)C(=O)N[C@@H](CO)C(=O)N[C@@H](CCCNC(=N)N)C(=O)NCCCCCC(N)=O)C(C)C
B3: peptide of amino acid sequence Thr-Glu-Nva-Val-Ala-Leu-Ser-Arg-AcpNH2 [SEQ ID NO:4] (peptide)
peptide: TE[Nva]VALSR[Ahx]-NH2
modifications: N-terminus assumed
SMILES: CCC[C@H](NC(=O)[C@H](CCC(=O)O)NC(=O)[C@@H](N)[C@@H](C)O)C(=O)N[C@H](C(=O)N[C@@H](C)C(=O)N[C@@H](CC(C)C)C(=O)N[C@@H](CO)C(=O)N[C@@H](CCCNC(=N)N)C(=O)NCCCCCC(N)=O)C(C)C
B4: peptide of amino acid sequence Glu-Nva-Val-Ala-Leu-Ser-Arg-AcpNH2 [SEQ ID NO:51] (peptide)
peptide: E[Nva]VALSR[Ahx]-NH2
modifications: N-terminus assumed
SMILES: CCC[C@H](NC(=O)[C@@H](N)CCC(=O)O)C(=O)N[C@H](C(=O)N[C@@H](C)C(=O)N[C@@H](CC(C)C)C(=O)N[C@@H](CO)C(=O)N[C@@H](CCCNC(=N)N)C(=O)NCCCCCC(N)=O)C(C)C
B5: peptide of amino acid sequence (D)-Ser-Glu-Nva-Val-Ala-Leu-Ser-N-MeArg-bAlaNH2 [SEQ ID NO:6] (peptide)
peptide: [dS]E[Nva]VALS[NMeR][βAla]-NH2

target: T1, leptin receptor (ObR) naturally expressed on MCF-7, LN229 and LN18 cells (human); experiment: cell-based or functional assay

| EC50, proliferation of ObR-positive cancer cells in the absence of leptin [nM] | IC50, proliferation of ObR-positive cancer cells in the presence of leptin (6 nM) [nM] | IC100, proliferation of ObR-positive cancer cells in the presence of leptin (6 nM) [nM] | Binder |
| --- | --- | --- | --- |
| > 1000 | 1000 |  | B1 |
| > 1000 | 0.2 | 5 | B2 |
| > 1000 | 5 | 50 | B3 |
| > 500 | 50 | 100 | B4 |
| > 1000 | 0.2 | < 1 | B5 |

target: T1, leptin receptor (ObR) naturally …; experiment: cell-based or functional assay; remark: another data set of the same source

| IC50, proliferation and XTT metabolic activity assays, LN229 and MCF-7 cells with leptin [nM] | Binder |
| --- | --- |
| 2 to 3 | B3 |
